From the supplement of paper PMC10567573

B1: TOR1AIP2 (parent)
chain: HHVADAYTSSQKVSPIQIDGAGRT
B2: SNX8 (parent)
chain: VVLKLFLSFSGSDVQNKLKESAQC

Variants of: B1
Assay: protein stability index of a GFP-peptide fusion (GPS, HEK-293T) (PSI 1-6); higher = more stable
Details: c terminus: a fixed tail appended
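Further: lentivirally expressed fusions sorted by FACS into six bins by GFP to DsRed ratio, PSI derived from sequencing read proportions per bin multiplied by bin number.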

Variant	protein stability index
HHVADAYTSSQKVSPIQIDAAGRT [G20A]	3.53
HHVADAYTSLQKVSPIQIDGAGRT [S10L]	3.07
HHVADTYTSSQKVSPIQIDGAGRT [A6T]	4.02
HHVADPYTSSQKVSPIQIDGAGRT [A6P]	4.3
HHVADAYTSSQKVSPIQIEGAGRT [D19E]	3.43
HSVADAYTSSQKVSPIQIDGAGRT [H2S]	4.08
HHVADAYTSSQKVSPIQIDGAGRR [T24R]	3.68
HHVADAYTSSQKVSPIQIDGAGRV [T24V]	3.51
HHVADAYTSSQKVSPIQIDGMGRT [A21M]	3.58
HHVALAYTSSQKVSPIQIDGAGRT [D5L]	2.44
HHVADAYTSSQKVSPIQIDGAVRT [G22V]	3.4

Variants of: B2
Assay: as above
Details: c terminus: a fixed tail appended

Variant	protein stability index
VVGKLFLSFSGSDVQNKLKESAQC [L3G]	1.78
VVKKLFLSFSGSDVQNKLKESAQC [L3K]	2.5
VVCKLFLSFSGSDVQNKLKESAQC [L3C]	2.4
VVFKLFLSFSGSDVQNKLKESAQC [L3F]	3.59
VVEKLFLSFSGSDVQNKLKESAQC [L3E]	1.57
VVTKLFLSFSGSDVQNKLKESAQC [L3T]	1.2
VVYKLFLSFSGSDVQNKLKESAQC [L3Y]	1.94
VVVKLFLSFSGSDVQNKLKESAQC [L3V]	3.77
VVDKLFLSFSGSDVQNKLKESAQC [L3D]	2.44
VVAKLFLSFSGSDVQNKLKESAQC [L3A]	2.34
VVHKLFLSFSGSDVQNKLKESAQC [L3H]	3.17
VVPKLFLSFSGSDVQNKLKESAQC [L3P]	2.87
VVQKLFLSFSGSDVQNKLKESAQC [L3Q]	2.61
VVSKLFLSFSGSDVQNKLKESAQC [L3S]	1.66
VVNKLFLSFSGSDVQNKLKESAQC [L3N]	2.21
VVLKLFLSFSGSDVQNLLKESAQC [K17L]	3.46
VVLKLFLSFSGSDVQNWLKESAQC [K17W]	4.7
VVLKLFLSFSGSDVQNALKESAQC [K17A]	1.72
VVLKLFLSFSGSDVQNVLKESAQC [K17V]	2.59
VVLKLFLSFSGSDVQNTLKESAQC [K17T]	3.29
VVLKLFLSFSGSDVQNYLKESAQC [K17Y]	3.54
VVLKLNLSFSGSDVQNKLKESAQC [F6N]	3.24
VVLKLPLSFSGSDVQNKLKESAQC [F6P]	2.29
VVLKLSLSFSGSDVQNKLKESAQC [F6S]	3.13
VVLKLILSFSGSDVQNKLKESAQC [F6I]	2.18
VVLKLDLSFSGSDVQNKLKESAQC [F6D]	1.17

Variant	protein stability index
VVLKLKLSFSGSDVQNKLKESAQC [F6K]	3.48
VVLKLELSFSGSDVQNKLKESAQC [F6E]	1.31
VVLKLMLSFSGSDVQNKLKESAQC [F6M]	2.48
VVLKLFLAFSGSDVQNKLKESAQC [S8A]	1.77
VVLKLFLLFSGSDVQNKLKESAQC [S8L]	2.45
VVLKLFLGFSGSDVQNKLKESAQC [S8G]	1.91
VVLKLFLRFSGSDVQNKLKESAQC [S8R]	1.92
VVLKLFLPFSGSDVQNKLKESAQC [S8P]	5.05
VVLKLFLWFSGSDVQNKLKESAQC [S8W]	2.64
VVLKLFLMFSGSDVQNKLKESAQC [S8M]	4.24
VVLKLFLSFSGSDVQNKCKESAQC [L18C]	3.48
VVLKLFLSFSGSDVQNKAKESAQC [L18A]	2.7
VVLKLFLSFSGSDVQNKEKESAQC [L18E]	2.26
VVLKLFLSNSGSDVQNKLKESAQC [F9N]	1.66
VVLKLFLSKSGSDVQNKLKESAQC [F9K]	1.72
VVLKLFLSRSGSDVQNKLKESAQC [F9R]	2.42
VVLKLFLSESGSDVQNKLKESAQC [F9E]	1.11
VVLKLFLSISGSDVQNKLKESAQC [F9I]	3.38
VVLKLFLSASGSDVQNKLKESAQC [F9A]	3
VVLKLFLSPSGSDVQNKLKESAQC [F9P]	2.64
VVLKLFLSWSGSDVQNKLKESAQC [F9W]	2.48
VVLKLFLSVSGSDVQNKLKESAQC [F9V]	3.52
VVLKLFLSHSGSDVQNKLKESAQC [F9H]	3.85
VVLKLFLSYSGSDVQNKLKESAQC [F9Y]	3.17
VVLKLFLSQSGSDVQNKLKESAQC [F9Q]	4.89
VVLKLFLSTSGSDVQNKLKESAQC [F9T]	2.41

Variant	protein stability index
VVLKLFLSFSGSDNQNKLKESAQC [V14N]	1.99
VVLKLFLSFSGSDDQNKLKESAQC [V14D]	2.3
VVLKLFLSFSGSDKQNKLKESAQC [V14K]	1.82
VVLKLFLSFSGSDTQNKLKESAQC [V14T]	2.53
VVLKLFLSFSGSDEQNKLKESAQC [V14E]	1.91
VVLKLFLSFSGSDYQNKLKESAQC [V14Y]	2.62
VVLKLFLSFSGSDHQNKLKESAQC [V14H]	1.59
VVLKLFLSFSGSDAQNKLKESAQC [V14A]	2.43
VVLKLFLSFSGSDSQNKLKESAQC [V14S]	4.53
VVLSLFLSFSGSDVQNKLKESAQC [K4S]	2.38
VVLHLFLSFSGSDVQNKLKESAQC [K4H]	2.6
VVLELFLSFSGSDVQNKLKESAQC [K4E]	4.58
VVLFLFLSFSGSDVQNKLKESAQC [K4F]	2.27
VVLQLFLSFSGSDVQNKLKESAQC [K4Q]	2.43
VVLNLFLSFSGSDVQNKLKESAQC [K4N]	2.76
VVLPLFLSFSGSDVQNKLKESAQC [K4P]	3.99
VVLKLFLSFSGSHVQNKLKESAQC [D13H]	3.62
VVLKLFLSFSGSTVQNKLKESAQC [D13T]	2.28
VVLKLFLSFSGSCVQNKLKESAQC [D13C]	2.1
VVLKLFLSFSGSQVQNKLKESAQC [D13Q]	3.33
VVLKLFLSFSGSFVQNKLKESAQC [D13F]	2.07
VSLKLFLSFSGSDVQNKLKESAQC [V2S]	2.79
VMLKLFLSFSGSDVQNKLKESAQC [V2M]	2.57
VYLKLFLSFSGSDVQNKLKESAQC [V2Y]	2.24
VELKLFLSFSGSDVQNKLKESAQC [V2E]	1.39
VWLKLFLSFSGSDVQNKLKESAQC [V2W]	3.59

Variant	protein stability index
VNLKLFLSFSGSDVQNKLKESAQC [V2N]	1.11
VKLKLFLSFSGSDVQNKLKESAQC [V2K]	3.26
VALKLFLSFSGSDVQNKLKESAQC [V2A]	3.41
VLLKLFLSFSGSDVQNKLKESAQC [V2L]	2.09
VCLKLFLSFSGSDVQNKLKESAQC [V2C]	3.14
VDLKLFLSFSGSDVQNKLKESAQC [V2D]	1.4
VPLKLFLSFSGSDVQNKLKESAQC [V2P]	2.19
VVLKLFLSFSGSDVQFKLKESAQC [N16F]	2.04
VVLKLFLSFSGSDVQWKLKESAQC [N16W]	3.64
VVLKLFLSFSGSDVQAKLKESAQC [N16A]	2.02
VVLKLFLSFSGSDVQKKLKESAQC [N16K]	2.2
VVLKLFLSFSGSDVQQKLKESAQC [N16Q]	4.03
VVLKLFLSFSGSDVQHKLKESAQC [N16H]	1.75
VVLKLFLSFSGSDVQIKLKESAQC [N16I]	2.64
VVLKLFLSFSGSDVQRKLKESAQC [N16R]	2.84
VVLKLFLSFSGSDVQGKLKESAQC [N16G]	1.35
VVLKLFLSFSGSDVMNKLKESAQC [Q15M]	4.13
VVLKLFLSFSGSDVCNKLKESAQC [Q15C]	4.88
VVLKLFLSFSGSDVDNKLKESAQC [Q15D]	1.8
VVLKLFLSFSGSDVNNKLKESAQC [Q15N]	2.9
VVLKLFLSFSGSDVTNKLKESAQC [Q15T]	3.35
VVLKLFLSFSGSDVYNKLKESAQC [Q15Y]	3.96
VVLKLFLSFSGSDVFNKLKESAQC [Q15F]	3.49
VVLKLFLSFSGLDVQNKLKESAQC [S12L]	1.37
VVLKLFLSFSGHDVQNKLKESAQC [S12H]	1.9
VVLKLFLSFSGYDVQNKLKESAQC [S12Y]	4.07

Variant	protein stability index
VVLKLFLSFSGQDVQNKLKESAQC [S12Q]	3.23
VVLKLFLSFSGMDVQNKLKESAQC [S12M]	1.72
VVLKLFLSFSGIDVQNKLKESAQC [S12I]	2.62
VVLKLFLSFSGNDVQNKLKESAQC [S12N]	2.13
VVLKLFLSFSGKDVQNKLKESAQC [S12K]	3.15
VVLKLFLSFSGWDVQNKLKESAQC [S12W]	3.39
VVLKLFLSFSGTDVQNKLKESAQC [S12T]	3.29
VVLKLFLSFSGDDVQNKLKESAQC [S12D]	3.29
VVLKLFLSFSGADVQNKLKESAQC [S12A]	2.2
VVLKLFLSFSGPDVQNKLKESAQC [S12P]	3.58
VVLKLFLSFSSSDVQNKLKESAQC [G11S]	2.41
VVLKLFLSFSHSDVQNKLKESAQC [G11H]	2.62
VVLKLFLSFSVSDVQNKLKESAQC [G11V]	3.28
VVLKLFLSFSLSDVQNKLKESAQC [G11L]	3.09
VVLKLFLSFSYSDVQNKLKESAQC [G11Y]	2.42
VVLKLFLSFSRSDVQNKLKESAQC [G11R]	3.97
VVLKLFLSFSASDVQNKLKESAQC [G11A]	2.33
VVLKLFLSFSDSDVQNKLKESAQC [G11D]	2.11
VVLKLFLSFSFSDVQNKLKESAQC [G11F]	3.55
VVLKLFLSFSISDVQNKLKESAQC [G11I]	2.14
VVLKLFLSFSESDVQNKLKESAQC [G11E]	3.17
VVLKLFLSFSQSDVQNKLKESAQC [G11Q]	1.77
VVLKLFLSFSCSDVQNKLKESAQC [G11C]	1.74
HVLKLFLSFSGSDVQNKLKESAQC [V1H]	1.6
SVLKLFLSFSGSDVQNKLKESAQC [V1S]	3.54
TVLKLFLSFSGSDVQNKLKESAQC [V1T]	2.48

Variant	protein stability index
WVLKLFLSFSGSDVQNKLKESAQC [V1W]	1.04
PVLKLFLSFSGSDVQNKLKESAQC [V1P]	1.85
AVLKLFLSFSGSDVQNKLKESAQC [V1A]	1.96
EVLKLFLSFSGSDVQNKLKESAQC [V1E]	2.47
IVLKLFLSFSGSDVQNKLKESAQC [V1I]	3.61
YVLKLFLSFSGSDVQNKLKESAQC [V1Y]	2.69
FVLKLFLSFSGSDVQNKLKESAQC [V1F]	2.81
RVLKLFLSFSGSDVQNKLKESAQC [V1R]	2.71
QVLKLFLSFSGSDVQNKLKESAQC [V1Q]	4.24
NVLKLFLSFSGSDVQNKLKESAQC [V1N]	1.36
VVLKCFLSFSGSDVQNKLKESAQC [L5C]	2.91
VVLKGFLSFSGSDVQNKLKESAQC [L5G]	1.55
VVLKEFLSFSGSDVQNKLKESAQC [L5E]	1.79
VVLKQFLSFSGSDVQNKLKESAQC [L5Q]	2.61
VVLKAFLSFSGSDVQNKLKESAQC [L5A]	2.93
VVLKFFLSFSGSDVQNKLKESAQC [L5F]	3.22
VVLKHFLSFSGSDVQNKLKESAQC [L5H]	2.57
VVLKSFLSFSGSDVQNKLKESAQC [L5S]	1.1
VVLKKFLSFSGSDVQNKLKESAQC [L5K]	2.59
VVLKDFLSFSGSDVQNKLKESAQC [L5D]	2.41
VVLKYFLSFSGSDVQNKLKESAQC [L5Y]	1.69
VVLKRFLSFSGSDVQNKLKESAQC [L5R]	1.92
VVLKPFLSFSGSDVQNKLKESAQC [L5P]	1.83
VVLKIFLSFSGSDVQNKLKESAQC [L5I]	2.62
VVLKLFKSFSGSDVQNKLKESAQC [L7K]	1.84
VVLKLFGSFSGSDVQNKLKESAQC [L7G]	1.43

Variant	protein stability index
VVLKLFHSFSGSDVQNKLKESAQC [L7H]	3.04
VVLKLFESFSGSDVQNKLKESAQC [L7E]	2.56
VVLKLFFSFSGSDVQNKLKESAQC [L7F]	2.35
VVLKLFNSFSGSDVQNKLKESAQC [L7N]	1.09
VVLKLFDSFSGSDVQNKLKESAQC [L7D]	1.73
VVLKLFVSFSGSDVQNKLKESAQC [L7V]	3.66
VVLKLFPSFSGSDVQNKLKESAQC [L7P]	2.34
VVLKLFQSFSGSDVQNKLKESAQC [L7Q]	1.63
VVLKLFLSFYGSDVQNKLKESAQC [S10Y]	2.26
VVLKLFLSFPGSDVQNKLKESAQC [S10P]	1.78
VVLKLFLSFQGSDVQNKLKESAQC [S10Q]	2.18
VVLKLFLSFMGSDVQNKLKESAQC [S10M]	1.38
VVLKLFLSFWGSDVQNKLKESAQC [S10W]	3.92
VVLKLFLSFKGSDVQNKLKESAQC [S10K]	2.22
VVLKLFLSFDGSDVQNKLKESAQC [S10D]	2.68
VVLKLFLSFAGSDVQNKLKESAQC [S10A]	1.79
VVLKLFLSFTGSDVQNKLKESAQC [S10T]	4.41
VVLKLFLSFLGSDVQNKLKESAQC [S10L]	2.45
VVLKLFLSFRGSDVQNKLKESAQC [S10R]	2.08
VVLKLFLSFVGSDVQNKLKESAQC [S10V]	3.99
VVLKLFLSFNGSDVQNKLKESAQC [S10N]	2.75
